Legend:
[1] = Photolysis of P2-insulin suspension in pH 7.2 PBS; assay type: physicochemical
[2] = Visual precipitation on pH shift and clarification on photolysis; assay type: physicochemical; conditions: 75µM, 10 minutes 365nm LED (1.84 mW/cm^2)
[3] = 2 h
[4] = Isoelectric point determination by IEF gel electrophoresis; assay type: physicochemical; conditions: data not shown
[5] = cited from earlier work

Substance	Insulin released from unirradiated control suspension ([1]; pH 7.2 PBS suspension processed identically, no 365 nm irradiation, IEF gel)	P2-insulin in supernatant of irradiated suspension ([1]; pH 7.2 PBS, IEF gel of supernatant)	Appearance of pH 7.2 suspension after irradiation [2]	Solubility at pH 4 [3] [µM]	pI of insulin reacted with uncharged DMNPE derivative vs native insulin [4]	pI (isoelectric point) [5]
P2-Insulin: insulin with two pyrrolidines linked via the photocleavable DMNPE group; likely mixture of modified carboxyl sites	no insulin released	no detectable P2-insulin	substantially clarified the suspension	216	–	–
insulin	–	–	–	–	5.4	5.4

From paper PMC6362458 (Journal of the American Chemical Society, 2017)
